16 substances from PMC9016351 can be followed below.

The target in one assay is RA‐BAX (UniProt Q07812). The experiment in a line: ddFP assay in cells (confocal microscopy). The note with it: U2OS BAX/BAK DKO cells, 3 h after apoptosis induction; n = 3 independent experiments (n = 100 cells each); parent: est. 28; read off a plot.
The target of the next assay is GB‐DRP1. The experiment in a line: ddFP assay in cells (confocal microscopy). As to conditions: U2OS BAX/BAK DKO cells, 3 h after apoptosis induction; n = 3 independent experiments (n = 100 cells each); parent: est. 21; read off a plot.

Sequence of UniProt Q07812 (Q07812 whole entry): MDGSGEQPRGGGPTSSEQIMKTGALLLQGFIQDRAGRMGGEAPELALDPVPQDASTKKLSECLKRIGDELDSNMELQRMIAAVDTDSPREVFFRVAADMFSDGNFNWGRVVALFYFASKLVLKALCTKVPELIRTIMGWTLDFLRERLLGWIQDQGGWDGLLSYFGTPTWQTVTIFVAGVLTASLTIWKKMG

In the case of GB‐DRP1 K38A, the response with RA‐BAX amounted to 24%.

As to RA‐BAX (from UniProt Q07812) K57E, in the assay with GB‐DRP1, the response was 22%.

With “RA‐BAX (from UniProt Q07812) G67R; S184V”, the response with GB‐DRP1 amounted to 3%.

For GB‐DRP1 R376E, the response with RA‐BAX was determined as 34%.

With GB‐DRP1 K557R; K560R; K569R; K571R, in the assay with RA‐BAX, the response came out at 35%.

In the case of RA‐BAX (from UniProt Q07812) L63E, the response in the assay with GB‐DRP1 is 0%.

RA‐BAX (from UniProt Q07812) R134E: the response in the assay with GB‐DRP1 amounted to 19%.

For the substance RA‐BAX (from UniProt Q07812) L59C, the response with GB‐DRP1 came to 38%.

With “RA‐BAX (from UniProt Q07812) K21E; R134E”, in the assay with GB‐DRP1, the response amounted to 26%.

GB‐DRP1 D221A: the response with RA‐BAX came out at 27%.

For RA‐BAX (from UniProt Q07812) G40E, the response in the assay with GB‐DRP1 came out at 15%.

As for GB‐DRP1 K642E, the response with RA‐BAX was determined as 33%.

As to RA‐BAX (from UniProt Q07812) S184V, in the assay with GB‐DRP1, the response turned out to be 7.5%.

Take RA‐BAX (from UniProt Q07812) K58E: the response with GB‐DRP1 was 21%.

In the case of RA‐BAX (from UniProt Q07812) K21E, the response with GB‐DRP1 worked out at 31%.

Regarding RA‐BAX (from UniProt Q07812) G67R, in the assay with GB‐DRP1, the response was found to be 15%.
